The values that follow are results of earlier work, collected in publication PMC11581309.

Targets include CDH1 (Homo sapiens) (UniProt P12830); CDH2 (Homo sapiens) (UniProt P19022); CDH2 (Gallus gallus) (UniProt P10288); CDH2 (Mus musculus) (UniProt P15116); CDH1 (Gallus gallus) (UniProt P08641); CDH1 (Mus musculus) (UniProt P09803).

pKd: −log10 of the molar value.

What is called pKd is the negative decadic logarithm of the Kd, by convention in mol/L. Regarding CDH1 (from UniProt P12830), the pKd in the series with CDH1 (Homo sapiens) is 3.66.

Turning to CDH2 (from UniProt P19022), the pKd with CDH2 (Homo sapiens) was 4.66. Take CDH2 (from UniProt P10288): the pKd with CDH2 (Gallus gallus) is 4.69.

Consider CDH2 (from UniProt P15116), for which the pKd with CDH2 (Mus musculus) is 4.65. In the case of CDH1 (from UniProt P08641), in the series with CDH1 (Gallus gallus), the pKd was 3.96. Turning to CDH1 (from UniProt P09803), the pKd in the series with CDH1 (Mus musculus) is 3.80.
